Assay results: patent publication US20050037969A1 (ARBOR VITA, published 2005)
Ends that are not written are not given here. * marks the point of attachment. Biotin = O=C1N[C@H]2[C@H](CS[C@H]2CCCCC(=O)*)N1

T1: GST-41.8 kD protein (KIAA0751) PDZ domain fusion protein (Mus musculus (Mouse), UniProt Q9EQZ7 682-763)
T1 construct: also called 41 kd; hypoth; not shown: glutathione S-transferase encoded by vector pGEX-3X (Pharmacia)
T1 sequence: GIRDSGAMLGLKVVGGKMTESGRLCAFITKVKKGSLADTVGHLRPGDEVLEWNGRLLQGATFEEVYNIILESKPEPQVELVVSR

T2: GST-PTN-4 PDZ domain fusion protein (Homo sapiens (Human), UniProt P29074 517-605)
T2 construct: also called protein-tyrosine phosphatase meg1; not shown: glutathione S-transferase encoded by vector pGEX-3X (Pharmacia)
T2 sequence: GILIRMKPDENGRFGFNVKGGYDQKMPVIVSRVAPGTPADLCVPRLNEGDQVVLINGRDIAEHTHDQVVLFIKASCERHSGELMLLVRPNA

T3: GST-AF6 PDZ domain fusion protein (Homo sapiens (Human), UniProt P55196 1001-1093)
T3 construct: also called af-6 protein; not shown: glutathione S-transferase encoded by vector pGEX-3X (Pharmacia)
T3 sequence: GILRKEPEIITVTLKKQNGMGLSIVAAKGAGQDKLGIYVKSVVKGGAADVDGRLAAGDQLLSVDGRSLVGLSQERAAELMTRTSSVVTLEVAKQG

T4: GST-KIAA0303 PDZ domain fusion protein (Homo sapiens (Human), UniProt O15021 1138-1228)
T4 construct: also called K303; not shown: glutathione S-transferase encoded by vector pGEX-3X (Pharmacia)
T4 sequence: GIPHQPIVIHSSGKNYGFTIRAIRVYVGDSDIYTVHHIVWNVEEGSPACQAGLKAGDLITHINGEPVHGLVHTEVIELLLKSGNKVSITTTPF

T5: KIAA0807 (PDZ domain)-GST fusion protein (human, UniProt Q6P0Q8 1104-1192)
T5 construct: also called K807; KIAA807; not shown: glutathione S-transferase encoded by vector pGEX-3X (Pharmacia)
T5 sequence: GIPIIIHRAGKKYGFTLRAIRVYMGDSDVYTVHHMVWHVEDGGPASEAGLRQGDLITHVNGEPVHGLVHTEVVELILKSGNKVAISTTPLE

T6: GST-RGS12 PDZ domain fusion protein (human, UniProt O14924 17-85)
T6 construct: also called human regulator of G-protein signalling 12; not shown: glutathione S-transferase encoded by vector pGEX-3X (Pharmacia)
T6 sequence: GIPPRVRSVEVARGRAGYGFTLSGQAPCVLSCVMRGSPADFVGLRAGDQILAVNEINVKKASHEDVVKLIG

T7: GST-LIM protein PDZ domain fusion protein (Human, UniProt Q96HC4 2-85)
T7 construct: also called Human LIM protein; not shown: glutathione S-transferase encoded by vector pGEX-3X (Pharmacia)
T7 sequence: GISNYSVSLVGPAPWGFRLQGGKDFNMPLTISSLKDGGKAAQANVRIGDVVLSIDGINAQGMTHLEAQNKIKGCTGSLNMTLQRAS

B1: Spectrin (beta) C-terminal peptide AA32L, biotinylated (peptide)
peptide: Biotin-SFPPCGHRENVPGQSLVSFV
notes: Marked (S), sticky; also called Spectrin beta (S); Spectrin β
B2: CD138 C-terminal peptide AA18L, biotinylated (peptide)
peptide: Biotin-PKQANGGAYQKPTKQEEFYA
notes: also called CD138 (syndecan-1); CD138 (syndecan)

Legend:
[1] = target: T1, GST-41.8 kD protein (KIAA0751) PDZ …; test: A/G assays
[2] = target: T2, GST-PTN-4 PDZ domain fusion protein; test: A/G plate assays, Table 2 matrix
[3] = target: T3, GST-AF6 PDZ domain fusion protein; test: A/G plate assays, Table 2 matrix
[4] = target: T4, GST-KIAA0303 PDZ domain fusion protein; test: A/G plate assays, Table 2 matrix
[5] = target: T5, KIAA0807 (PDZ domain)-GST fusion protein; test: A/G plate assays, Table 2 matrix
[6] = target: T8, GST-PSD95 fusion protein (PDZ domains 1-3) (human, UniProt P31016 56-395 (rat entry)); test: A/G plate assays, Table 2 matrix
T8 construct: also called human post-synaptic density protein 95; not shown: glutathione S-transferase encoded by vector pGEX-3X (Pharmacia)

[7] = target: T9, NOS1 PDZ-GST fusion protein (Homo sapiens (Human), UniProt P29475 11-100); test: A/G assays
T9 construct: Order of GST and PDZ part and limits not seen in the excerpts

[8] = target: T10, GST-TIAM1 PDZ domain fusion protein (Homo sapiens (Human), UniProt Q13009 845-931); test: A/G plate assays, Table 2 matrix
T10 construct: also called TLAM1; T-lymphoma invasion and metastasis inducing protein 1; not shown: glutathione S-transferase encoded by vector pGEX-3X (Pharmacia)

[9] = target: T8, GST-PSD95 fusion protein (PDZ domains …); test: G assay: biotinylated peptide on plate-bound GST-PDZ fusion, OD 450 nm
[10] = target: T1, GST-41.8 kD protein (KIAA0751) PDZ …; test: G assay: biotinylated peptide on plate-bound GST-PDZ fusion, streptavidin-HRP, OD 450 nm
[11] = target: T8, GST-PSD95 fusion protein (PDZ domains …); test: G assay titration of biotinylated peptide on plate-bound GST-PDZ, apparent affinity from saturation fit
[12] = target: T1, GST-41.8 kD protein (KIAA0751) PDZ …; test: A/G plate assays, Table 2 matrix
[13] = target: T6, GST-RGS12 PDZ domain fusion protein; test: A/G plate assays, Table 2 matrix
[14] = target: T8, GST-PSD95 fusion protein (PDZ domains …); test: G assay: biotinylated peptide on plate-bound GST-PDZ fusion, streptavidin-HRP, OD 450 nm
[15] = target: T7, GST-LIM protein PDZ domain fusion …; test: A/G plate assays, Table 2 matrix
[16] = target: T8, GST-PSD95 fusion protein (PDZ domains …); test: A/G assays

T9 sequence (P29475 11-100 limits assumed): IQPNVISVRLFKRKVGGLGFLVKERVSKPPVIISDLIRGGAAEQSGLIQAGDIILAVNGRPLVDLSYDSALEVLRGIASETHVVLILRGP
T8 sequence (P31016 other isoform, or with tags, fused parts or gaps): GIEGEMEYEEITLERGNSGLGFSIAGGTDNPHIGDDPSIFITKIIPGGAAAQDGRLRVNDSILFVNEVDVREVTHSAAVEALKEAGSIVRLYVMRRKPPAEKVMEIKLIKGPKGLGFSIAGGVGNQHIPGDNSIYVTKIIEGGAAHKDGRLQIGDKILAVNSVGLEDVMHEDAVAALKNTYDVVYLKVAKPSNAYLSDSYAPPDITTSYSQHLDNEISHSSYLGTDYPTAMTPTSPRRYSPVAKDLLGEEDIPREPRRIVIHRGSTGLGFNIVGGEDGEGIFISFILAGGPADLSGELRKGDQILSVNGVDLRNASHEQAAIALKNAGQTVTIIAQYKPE
T10 sequence (Q13009 other isoform, or with tags, fused parts or gaps): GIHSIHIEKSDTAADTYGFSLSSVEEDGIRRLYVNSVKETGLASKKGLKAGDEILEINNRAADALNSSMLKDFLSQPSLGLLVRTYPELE

Row | Binder | binding result [1] | binding result [5] | binding result [7] | binding result [12] | binding result [13] | binding result [16] | other results
1 | B1 | no binding | binds |  |  |  |  | binding result [2]: binds; binding result [3]: binds; binding result [4]: binds; binding result [6]: binds
2 | B2 |  |  | no binding |  |  |  | binding result [8]: binds; binding result [9]: no binding; binding result [10]: binds
3 | Biotin-ISGTPTSTMVHGMTSSSSVV [Clasp-2 C-terminal peptide AA2L, biotinylated] |  |  | no binding |  |  |  | Kd [11]: 45 µM
4 | Biotin-TTNNNPNSAVNIKKIFTDV [KV1.3 C-terminal peptide AA33L, biotinylated] |  | binds | no binding | binds | binds |  | binding result [14]: binds
5 | Biotin-TREDIYVNYPTFSRRPKTRV [DNAM-1 C-terminal peptide AA22L, biotinylated] |  |  |  | binds | binds |  | binding result [15]: binds; binding result [3]: binds; binding result [14]: binds
6 | Biotin-ARKANMKGSYSLVEAQKSKV (also called CD106) [VCAM1 C-terminal peptide AA17L, biotinylated] |  | binds | no binding | binds |  | no binding | binding result [8]: binds; binding result [4]: binds
7 | Biotin-KDITSDSENSNFRNEIQSLV (also called CD95 (Apo-1/Fas); AAI3L) [CD95 (Fas) C-terminal peptide AA13L, biotinylated] |  |  | no binding |  |  |  | binding result [10]: binds; Kd [11]: 85 µM
8 | Biotin-STNHSIGSTQSTPCSTSSMA (also called CD105 (endoglin)) [CD105 C-terminal peptide AA16L, biotinylated] | no binding |  | no binding |  |  | no binding | binding result [15]: binds
9 | Biotin-EVICYIEKPGVETLEDSVF [CDW125 (IL5R) C-terminal peptide AA28L, biotinylated] | no binding |  | no binding |  | binds | no binding | binding result [2]: binds
